Experimental data taken from patent US20060240487A1 (published 2006).

What was measured:
[1] = target: T1, biotinylated mature GDF-8 dimer (human, UniProt O14793 267-375, biotin on amine groups (lysine residues and/or amino termini); biotin:GDF-8 molar ratio between 0:1 and 3:1); test: ELISA standard curve, 4-parameter logistic fit; c = concentration resulting in signal at approximately midpoint between a and d; biotinylated GDF-8 on streptavidin plate
T1 construct: Captured on streptavidin-coated plates; also called Biotinylated GDF-8; biotinylated mature GDF-8 protein
Procedure: To detect MYO-029 in a human serum sample, an ELISA was performed as follows. Streptavidin was adsorbed by first adding streptavidin coating solution (100 μL/well) (5 μg/mL ImmunoPure streptavidin (Pierce) in 0.1 M Carbonate/Bicarbonate buffer, pH 9.6) to the wells of a 96 well plate (high binding flat-bottom microtiter) (Costar, Cat. No. 3590). The plate was covered with sealing film and incubated at 2-8° C. overnight. Using an automatic plate washer, the plate was washed four times (4×) with THST buffer (300 μL/well) (50 mM Tris-HCl, pH 8.0, containing 1.0 mM glycine, 0.5 M NaCl, and 0.05% v/v/ Tween 20® (J. T. Baker)), reversing the orientation of the plate after the second wash. To block, 200 μL of blocking buffer (1% bovine albumin (Sigma), 0.02% sodium azide in PBS (Dulbeccos)) was added to each well. The plate was covered with sealing film and incubated for 1-2 hours at room temperature and then washed as above. […]
A MYO-029 working calibrator solution was prepared of 1080 ng/mL MYO-029 in normal human serum (Bioreclamation, Inc.) The 1080 ng/mL stock was fist diluted 8-fold in assay buffer (THST buffer+4% nonfat dry milk), and then a series of 1.5 fold dilutions of the resulting 135 ng/mL standard were prepared in THST+4% nonfat dry milk+12.5% normal human serum to yield the calibration standard concentrations. […] For human serum, the minimum dilution determined was 1:8. […]

[2] = target: T1, biotinylated mature GDF-8 dimer; test: ELISA standard curve parameters of the rat serum experiment; biotinylated GDF-8 on streptavidin plate

B1: MYO-029 (antibody, V domains shown)
VH: QVQLVQSGAEVKKPGASVKVSCKASGYTFTSYYMHWVRQAPGQGLEWMGIINPSGGSTSYAQKFQGRVTMTRDTSTSTVYMELSSLRSEDTAVYYCARDENWGFDPWGQGTLVTVSS
VL: SYELTQPPSVSVSPGQTATITCSGHALGDKFVSWYQQGSGQSPVLVIYDDTQRPSGIPGRFSGSNSGNTATLTISGTQAMDEADYFCQAWDSSFVFGGGTKVTVL
notes: also called fully human antibody
EC50 [1]: 0.0728 µg/mL | EC50 [2]: 0.0587 µg/mL
